According to publication doi:10.1101/2022.02.02.478874 (bioRxiv, 2022):

T1: ^mChSpindly^ΔRV (human, UniProt Q96EA4 1-605, ΔRV (residues R154-V155))
T1 sequence: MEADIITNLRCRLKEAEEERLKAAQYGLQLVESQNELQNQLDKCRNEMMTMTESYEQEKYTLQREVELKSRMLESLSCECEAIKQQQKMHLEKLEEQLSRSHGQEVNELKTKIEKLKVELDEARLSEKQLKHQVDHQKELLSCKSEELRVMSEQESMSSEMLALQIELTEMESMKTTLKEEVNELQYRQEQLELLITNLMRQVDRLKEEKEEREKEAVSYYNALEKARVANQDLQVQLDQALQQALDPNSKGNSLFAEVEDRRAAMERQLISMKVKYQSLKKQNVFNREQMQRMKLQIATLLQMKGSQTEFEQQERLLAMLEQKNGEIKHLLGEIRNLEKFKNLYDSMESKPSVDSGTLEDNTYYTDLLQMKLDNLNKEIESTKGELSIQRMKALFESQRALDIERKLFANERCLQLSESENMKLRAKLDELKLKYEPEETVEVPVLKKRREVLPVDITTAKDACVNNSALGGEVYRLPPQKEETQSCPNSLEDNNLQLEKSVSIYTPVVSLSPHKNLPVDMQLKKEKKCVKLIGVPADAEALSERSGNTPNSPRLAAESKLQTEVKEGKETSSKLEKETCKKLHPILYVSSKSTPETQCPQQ

B1: ^mChSpindly^CC2* (R295E-K297E) (natural protein)
chain: MEADIITNLRCRLKEAEEERLKAAQYGLQLVESQNELQNQLDKCRNEMMTMTESYEQEKYTLQREVELKSRMLESLSCECEAIKQQQKMHLEKLEEQLSRSHGQEVNELKTKIEKLKVELDEARLSEKQLKHQVDHQKELLSCKSEELRVMSERVQESMSSEMLALQIELTEMESMKTTLKEEVNELQYRQEQLELLITNLMRQVDRLKEEKEEREKEAVSYYNALEKARVANQDLQVQLDQALQQALDPNSKGNSLFAEVEDRRAAMERQLISMKVKYQSLKKQNVFNREQMQEMELQIATLLQMKGSQTEFEQQERLLAMLEQKNGEIKHLLGEIRNLEKFKNLYDSMESKPSVDSGTLEDNTYYTDLLQMKLDNLNKEIESTKGELSIQRMKALFESQRALDIERKLFANERCLQLSESENMKLRAKLDELKLKYEPEETVEVPVLKKRREVLPVDITTAKDACVNNSALGGEVYRLPPQKEETQSCPNSLEDNNLQLEKSVSIYTPVVSLSPHKNLPVDMQLKKEKKCVKLIGVPADAEALSERSGNTPNSPRLAAESKLQTEVKEGKETSSKLEKETCKKLHPILYVSSKSTPETQCPQQ

Legend:
^mChSpindly^ΔRV = target: T1, ^mChSpindly^ΔRV; assay: pull-down
[1] = target: B1; assay: pull-down
mass photometry = target: the molecule itself; assay: mass photometry
[2] = target: ROD-Zwilch-ZW10 (RZZ) complex with mCherry on ROD (UniProt P50748;Q9H900;O43264); assay: SEC
Chain of ROD-Zwilch-ZW10 (RZZ) complex with mCherry on ROD (P50748 whole entry, chain 1 of 3): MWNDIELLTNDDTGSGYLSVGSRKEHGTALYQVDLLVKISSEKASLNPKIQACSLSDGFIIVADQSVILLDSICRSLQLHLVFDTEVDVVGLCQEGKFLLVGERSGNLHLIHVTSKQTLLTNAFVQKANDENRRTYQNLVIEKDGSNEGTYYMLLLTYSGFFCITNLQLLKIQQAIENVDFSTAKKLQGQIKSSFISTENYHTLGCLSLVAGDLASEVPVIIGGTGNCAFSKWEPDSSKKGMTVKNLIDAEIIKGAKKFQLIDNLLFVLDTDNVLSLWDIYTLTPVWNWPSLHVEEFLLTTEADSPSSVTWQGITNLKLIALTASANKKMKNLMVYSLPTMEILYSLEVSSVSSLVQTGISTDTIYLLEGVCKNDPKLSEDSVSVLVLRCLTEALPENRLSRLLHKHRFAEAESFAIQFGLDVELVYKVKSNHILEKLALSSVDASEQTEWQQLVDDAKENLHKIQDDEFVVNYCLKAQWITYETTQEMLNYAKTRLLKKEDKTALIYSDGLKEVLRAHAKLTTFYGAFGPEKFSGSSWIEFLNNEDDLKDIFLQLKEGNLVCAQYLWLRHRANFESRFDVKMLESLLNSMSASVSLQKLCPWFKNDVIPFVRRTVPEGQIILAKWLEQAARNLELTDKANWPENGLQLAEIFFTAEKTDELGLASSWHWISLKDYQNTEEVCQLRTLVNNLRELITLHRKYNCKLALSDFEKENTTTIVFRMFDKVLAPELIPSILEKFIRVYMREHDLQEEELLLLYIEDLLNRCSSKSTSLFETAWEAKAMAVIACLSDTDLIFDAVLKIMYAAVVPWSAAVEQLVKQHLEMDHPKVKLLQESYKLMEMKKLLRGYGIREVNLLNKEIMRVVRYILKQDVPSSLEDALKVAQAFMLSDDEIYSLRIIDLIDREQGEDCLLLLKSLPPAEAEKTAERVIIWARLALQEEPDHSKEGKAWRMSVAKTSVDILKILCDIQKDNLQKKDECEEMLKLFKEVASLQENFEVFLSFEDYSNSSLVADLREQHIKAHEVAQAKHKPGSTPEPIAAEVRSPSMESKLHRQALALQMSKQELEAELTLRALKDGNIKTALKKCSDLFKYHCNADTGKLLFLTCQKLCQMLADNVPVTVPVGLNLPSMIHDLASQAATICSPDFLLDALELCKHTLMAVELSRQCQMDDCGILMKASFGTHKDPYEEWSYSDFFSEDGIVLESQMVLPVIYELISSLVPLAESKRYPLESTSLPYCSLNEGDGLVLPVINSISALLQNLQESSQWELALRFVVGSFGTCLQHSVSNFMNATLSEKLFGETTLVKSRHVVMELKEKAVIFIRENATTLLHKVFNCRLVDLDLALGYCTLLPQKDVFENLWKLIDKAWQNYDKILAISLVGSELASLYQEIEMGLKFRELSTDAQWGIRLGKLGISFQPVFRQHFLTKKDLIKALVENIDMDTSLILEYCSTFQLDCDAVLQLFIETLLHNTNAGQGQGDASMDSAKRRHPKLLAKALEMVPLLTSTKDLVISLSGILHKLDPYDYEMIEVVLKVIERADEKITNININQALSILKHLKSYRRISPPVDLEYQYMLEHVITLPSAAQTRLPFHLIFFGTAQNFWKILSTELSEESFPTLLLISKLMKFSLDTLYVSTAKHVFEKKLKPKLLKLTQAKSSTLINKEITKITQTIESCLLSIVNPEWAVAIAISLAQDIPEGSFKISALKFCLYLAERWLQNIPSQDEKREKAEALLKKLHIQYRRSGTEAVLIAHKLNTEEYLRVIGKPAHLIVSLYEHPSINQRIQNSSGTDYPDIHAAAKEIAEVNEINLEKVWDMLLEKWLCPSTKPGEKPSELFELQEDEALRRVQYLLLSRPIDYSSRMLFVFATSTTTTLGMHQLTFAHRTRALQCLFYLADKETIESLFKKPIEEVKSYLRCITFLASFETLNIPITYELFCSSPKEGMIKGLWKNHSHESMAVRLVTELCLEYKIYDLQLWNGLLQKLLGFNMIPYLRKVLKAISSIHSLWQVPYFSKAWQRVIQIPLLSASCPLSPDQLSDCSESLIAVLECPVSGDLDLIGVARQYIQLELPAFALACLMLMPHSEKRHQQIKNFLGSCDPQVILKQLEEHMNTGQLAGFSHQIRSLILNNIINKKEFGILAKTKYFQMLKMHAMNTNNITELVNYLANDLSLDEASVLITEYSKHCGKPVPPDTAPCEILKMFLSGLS
Chain of ROD-Zwilch-ZW10 (RZZ) complex with mCherry on ROD (Q9H900 whole entry, chain 2 of 3): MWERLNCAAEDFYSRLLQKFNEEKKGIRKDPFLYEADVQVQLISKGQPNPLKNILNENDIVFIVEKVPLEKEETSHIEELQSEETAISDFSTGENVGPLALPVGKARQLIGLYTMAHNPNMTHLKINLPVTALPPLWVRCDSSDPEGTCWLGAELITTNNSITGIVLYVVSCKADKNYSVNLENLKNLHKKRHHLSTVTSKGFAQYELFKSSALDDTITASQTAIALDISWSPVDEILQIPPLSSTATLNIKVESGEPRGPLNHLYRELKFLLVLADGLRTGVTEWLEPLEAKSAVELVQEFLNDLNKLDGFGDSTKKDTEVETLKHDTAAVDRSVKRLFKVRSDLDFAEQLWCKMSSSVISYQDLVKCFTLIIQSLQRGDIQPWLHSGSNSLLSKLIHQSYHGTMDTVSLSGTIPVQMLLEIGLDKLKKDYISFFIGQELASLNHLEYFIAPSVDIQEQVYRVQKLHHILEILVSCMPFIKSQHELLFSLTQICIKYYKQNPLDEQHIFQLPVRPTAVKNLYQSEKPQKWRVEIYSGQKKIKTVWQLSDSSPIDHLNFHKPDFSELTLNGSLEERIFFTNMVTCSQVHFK
Chain of ROD-Zwilch-ZW10 (RZZ) complex with mCherry on ROD (O43264 whole entry, chain 3 of 3): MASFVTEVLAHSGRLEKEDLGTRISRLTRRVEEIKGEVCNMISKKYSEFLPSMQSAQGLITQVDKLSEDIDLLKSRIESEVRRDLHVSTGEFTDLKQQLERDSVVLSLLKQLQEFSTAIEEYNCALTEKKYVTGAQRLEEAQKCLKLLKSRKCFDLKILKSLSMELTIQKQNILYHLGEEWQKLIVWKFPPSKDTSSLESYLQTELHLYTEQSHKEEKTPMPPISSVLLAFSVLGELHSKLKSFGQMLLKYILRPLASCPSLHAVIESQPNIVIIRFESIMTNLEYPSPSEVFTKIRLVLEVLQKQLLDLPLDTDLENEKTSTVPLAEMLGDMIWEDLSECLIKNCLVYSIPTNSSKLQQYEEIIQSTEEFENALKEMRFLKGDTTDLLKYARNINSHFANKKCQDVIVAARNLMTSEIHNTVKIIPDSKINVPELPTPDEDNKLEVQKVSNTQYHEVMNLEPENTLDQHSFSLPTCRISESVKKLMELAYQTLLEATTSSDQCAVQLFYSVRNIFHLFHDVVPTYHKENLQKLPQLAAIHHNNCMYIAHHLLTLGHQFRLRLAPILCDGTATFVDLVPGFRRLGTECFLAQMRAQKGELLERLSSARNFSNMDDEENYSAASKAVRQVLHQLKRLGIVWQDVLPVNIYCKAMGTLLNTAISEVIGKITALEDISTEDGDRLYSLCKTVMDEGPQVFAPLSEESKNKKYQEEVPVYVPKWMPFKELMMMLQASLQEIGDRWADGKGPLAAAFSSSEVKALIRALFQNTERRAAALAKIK

binding result (^mChSpindly^ΔRV)	binding result [1]	binding result [2]	Binder	stoichiometry N (mass photometry)
binds	binds		GST-tagged LIC2 (Dynein light intermediate chain 2) (natural protein) MAPVGVEKKLLLGPNGPAVAAAGDLTSEEEEGQSLWSSILSEVSTRARSKLPSGKNILVFGEDGSGKTTLMTKLQGAEHGKKGRGLEYLYLSVHDEDRDDHTRCNVWILDGDLYHKGLLKFAVSAESLPETLVIFVADMSRPWTVMESLQKWASVLREHIDKMKIPPEKMRELERKFVKDFQDYMEPEEGCQGSPQRRGPLTSGSDEENVALPLGDNVLTHNLGIPVLVVCTKCDAVSVLEKEHDYRDEHLDFIQSHLRRFCLQYGAALIYTSVKEEKNLDLLYKYIVHKTYGFHFTTPALVVEKDAVFIPAGWDNEKKIAILHENFTTVKPEDAYEDFIVKPPVRKLVHDKELAAEDEQVFLMKQQSLLAKQPATPTRASESPARGPSGSPRTQGRGGPASVPSSSPGTSVKKPDPNIKNNAASEGVLASFFNSLLSKKTGSPGSPGAGGVQSTAKKSGQKTVLSNVQEELDRMTRKPDSMVTNSSTENEA	
		binds	B1	2
